Source: PMC10786891, “Massively parallel profiling of RNA-targeting CRISPR-Cas13d”

target: T1, EsCas13d, nuclease-dead (Eubacterium siraeum, UniProt B0MS50, R295A;H300A;R849A;H854A); assay: crRNA (strand 1, pre-loaded); Mg2+; 40 mM Tris-HCl pH 7.5, 150 mM NaCl, 6 mM MgCl2, 1 mM DTT, 0.1% Tween-20, 0.2 mg/ml BSA; 25 C; 10 min per concentration, then washed; details: tags: His6-TwinStrep-SUMO cleaved; N-terminal SNAP kept (SNAP-Surface 488); label: 3' end held by stalled T7 RNA polymerase
T1 sequence: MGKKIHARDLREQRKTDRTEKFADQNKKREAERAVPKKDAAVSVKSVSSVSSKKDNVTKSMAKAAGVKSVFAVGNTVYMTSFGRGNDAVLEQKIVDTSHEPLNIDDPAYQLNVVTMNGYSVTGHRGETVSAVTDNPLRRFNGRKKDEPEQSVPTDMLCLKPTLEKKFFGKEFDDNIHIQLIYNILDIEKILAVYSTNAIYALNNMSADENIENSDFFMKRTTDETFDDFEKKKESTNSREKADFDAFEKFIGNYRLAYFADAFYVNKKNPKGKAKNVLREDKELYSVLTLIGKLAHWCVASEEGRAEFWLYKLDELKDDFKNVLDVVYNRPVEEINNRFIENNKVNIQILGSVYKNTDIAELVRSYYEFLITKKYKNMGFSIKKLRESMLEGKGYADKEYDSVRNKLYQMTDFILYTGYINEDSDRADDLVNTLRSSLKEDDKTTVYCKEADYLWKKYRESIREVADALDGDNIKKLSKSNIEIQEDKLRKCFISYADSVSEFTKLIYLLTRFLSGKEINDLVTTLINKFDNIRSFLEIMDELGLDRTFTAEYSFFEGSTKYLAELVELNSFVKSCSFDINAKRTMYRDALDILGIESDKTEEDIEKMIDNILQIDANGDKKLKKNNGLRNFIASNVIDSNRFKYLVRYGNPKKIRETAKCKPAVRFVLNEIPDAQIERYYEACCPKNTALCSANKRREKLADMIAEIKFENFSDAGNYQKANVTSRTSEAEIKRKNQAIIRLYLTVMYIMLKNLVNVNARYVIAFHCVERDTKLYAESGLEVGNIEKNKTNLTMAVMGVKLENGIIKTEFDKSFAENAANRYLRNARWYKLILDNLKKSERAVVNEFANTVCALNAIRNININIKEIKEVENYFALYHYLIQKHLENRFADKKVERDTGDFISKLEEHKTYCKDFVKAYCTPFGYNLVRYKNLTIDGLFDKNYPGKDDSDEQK

Row | Binder | Kd [nM]
1 | target 1 U11A,G17C (mixed) RNA 1: CACCCGUGCAAAAAUGCAGGGGUCUAAAACUGAGCGGAUAACCUCUCUAUGG RNA 2: GGGAAUGGAUCCACAUCUACGAAUUCGUACCAUACAGAGGAUAUCCGCUCACCGAGAUCGGAAGAGCACACGU | ~70
2 | target 1 insA 3' of 15,insG 3' of 8 (mixed) RNA 1: CACCCGUGCAAAAAUGCAGGGGUCUAAAACUGAGCGGAUAACCUCUCUAUGG RNA 2: GGGAAUGGAUCCACAUCUACGAAUUCGUACCAUAGAGAAGGUUAUGCCGCUCACCGAGAUCGGAAGAGCACACGU | 7.9 ± 0.4
3 | target 1 insC 3' of 19,insU 3' of 7 (mixed) RNA 1: CACCCGUGCAAAAAUGCAGGGGUCUAAAACUGAGCGGAUAACCUCUCUAUGG RNA 2: GGGAAUGGAUCCACAUCUACGAAUUCGUACCAUCAGAGAGGUUAUCUCGCUCACCGAGAUCGGAAGAGCACACGU | 62 ± 7
4 | target 1 complement block 18-20 (mixed) RNA 1: CACCCGUGCAAAAAUGCAGGGGUCUAAAACUGAGCGGAUAACCUCUCUAUGG RNA 2: GGGAAUGGAUCCACAUCUACGAAUUCGUACCUAUGAGAGGUUAUCCGCUCACCGAGAUCGGAAGAGCACACGU | 57 ± 7
5 | target 1 insC 3' of 15,insG 3' of 10 (mixed) RNA 1: CACCCGUGCAAAAAUGCAGGGGUCUAAAACUGAGCGGAUAACCUCUCUAUGG RNA 2: GGGAAUGGAUCCACAUCUACGAAUUCGUACCAUAGAGCAGGUUGAUCCGCUCACCGAGAUCGGAAGAGCACACGU | 24.6 ± 1.8
6 | target 1 insU 3' of 6,insU 3' of 5 (mixed) RNA 1: CACCCGUGCAAAAAUGCAGGGGUCUAAAACUGAGCGGAUAACCUCUCUAUGG RNA 2: GGGAAUGGAUCCACAUCUACGAAUUCGUACCAUAGAGAGGUUAUCCUGUCUCACCGAGAUCGGAAGAGCACACGU | 14.3 ± 0.6
7 | target 1 del14 (mixed) RNA 1: CACCCGUGCAAAAAUGCAGGGGUCUAAAACUGAGCGGAUAACCUCUCUAUGG RNA 2: GGGAAUGGAUCCACAUCUACGAAUUCGUACCAUAGAGGGUUAUCCGCUCACCGAGAUCGGAAGAGCACACGU | 12.1 ± 0.9
8 | target 1 A18C,C21U (mixed) RNA 1: CACCCGUGCAAAAAUGCAGGGGUCUAAAACUGAGCGGAUAACCUCUCUAUGG RNA 2: GGGAAUGGAUCCACAUCUACGAAUUCGUACUAUCGAGAGGUUAUCCGCUCACCGAGAUCGGAAGAGCACACGU | 7.48 ± 0.31
9 | target 1 U19G,C22A (mixed) RNA 1: CACCCGUGCAAAAAUGCAGGGGUCUAAAACUGAGCGGAUAACCUCUCUAUGG RNA 2: GGGAAUGGAUCCACAUCUACGAAUUCGUAACAGAGAGAGGUUAUCCGCUCACCGAGAUCGGAAGAGCACACGU | 54 ± 9
10 | target 1 C4A,U19C (mixed) RNA 1: CACCCGUGCAAAAAUGCAGGGGUCUAAAACUGAGCGGAUAACCUCUCUAUGG RNA 2: GGGAAUGGAUCCACAUCUACGAAUUCGUACCACAGAGAGGUUAUCCGAUCACCGAGAUCGGAAGAGCACACGU | ~36
11 | target 1 C2U,C6G (mixed) RNA 1: CACCCGUGCAAAAAUGCAGGGGUCUAAAACUGAGCGGAUAACCUCUCUAUGG RNA 2: GGGAAUGGAUCCACAUCUACGAAUUCGUACCAUAGAGAGGUUAUCGGCUUACCGAGAUCGGAAGAGCACACGU | 7.9 ± 0.3
12 | target 1 insU 3' of 6,insU 3' of 2 (mixed) RNA 1: CACCCGUGCAAAAAUGCAGGGGUCUAAAACUGAGCGGAUAACCUCUCUAUGG RNA 2: GGGAAUGGAUCCACAUCUACGAAUUCGUACCAUAGAGAGGUUAUCCUGCUCUACCGAGAUCGGAAGAGCACACGU | 17 ± 1.6
13 | target 1 C2G,U10C (mixed) RNA 1: CACCCGUGCAAAAAUGCAGGGGUCUAAAACUGAGCGGAUAACCUCUCUAUGG RNA 2: GGGAAUGGAUCCACAUCUACGAAUUCGUACCAUAGAGAGGUCAUCCGCUGACCGAGAUCGGAAGAGCACACGU | 5.45 ± 0.29
14 | target 1 C4G,C21U (mixed) RNA 1: CACCCGUGCAAAAAUGCAGGGGUCUAAAACUGAGCGGAUAACCUCUCUAUGG RNA 2: GGGAAUGGAUCCACAUCUACGAAUUCGUACUAUAGAGAGGUUAUCCGGUCACCGAGAUCGGAAGAGCACACGU | 3.5 ± 0.5
15 | target 1 C2A,U10C (mixed) RNA 1: CACCCGUGCAAAAAUGCAGGGGUCUAAAACUGAGCGGAUAACCUCUCUAUGG RNA 2: GGGAAUGGAUCCACAUCUACGAAUUCGUACCAUAGAGAGGUCAUCCGCUAACCGAGAUCGGAAGAGCACACGU | 17.8 ± 0.7
16 | target 1 insA 3' of 19,insA 3' of 12 (mixed) RNA 1: CACCCGUGCAAAAAUGCAGGGGUCUAAAACUGAGCGGAUAACCUCUCUAUGG RNA 2: GGGAAUGGAUCCACAUCUACGAAUUCGUACCAUAAGAGAGGAUUAUCCGCUCACCGAGAUCGGAAGAGCACACGU | 54 ± 5
17 | target 1 complement block 8-11 (mixed) RNA 1: CACCCGUGCAAAAAUGCAGGGGUCUAAAACUGAGCGGAUAACCUCUCUAUGG RNA 2: GGGAAUGGAUCCACAUCUACGAAUUCGUACCAUAGAGAGGAAUACCGCUCACCGAGAUCGGAAGAGCACACGU | 18.2 ± 0.8
18 | target 1 G5C,G13A (mixed) RNA 1: CACCCGUGCAAAAAUGCAGGGGUCUAAAACUGAGCGGAUAACCUCUCUAUGG RNA 2: GGGAAUGGAUCCACAUCUACGAAUUCGUACCAUAGAGAAGUUAUCCCCUCACCGAGAUCGGAAGAGCACACGU | 5.8 ± 0.4
19 | target 1 insC 3' of 19,insA 3' of 2 (mixed) RNA 1: CACCCGUGCAAAAAUGCAGGGGUCUAAAACUGAGCGGAUAACCUCUCUAUGG RNA 2: GGGAAUGGAUCCACAUCUACGAAUUCGUACCAUCAGAGAGGUUAUCCGCUCAACCGAGAUCGGAAGAGCACACGU | 33.8 ± 3.1
20 | target 1 insC 3' of 19,insC 3' of 1 (mixed) RNA 1: CACCCGUGCAAAAAUGCAGGGGUCUAAAACUGAGCGGAUAACCUCUCUAUGG RNA 2: GGGAAUGGAUCCACAUCUACGAAUUCGUACCAUCAGAGAGGUUAUCCGCUCACCCGAGAUCGGAAGAGCACACGU | 26.4 ± 3
21 | target 1 C7G,A9G (mixed) RNA 1: CACCCGUGCAAAAAUGCAGGGGUCUAAAACUGAGCGGAUAACCUCUCUAUGG RNA 2: GGGAAUGGAUCCACAUCUACGAAUUCGUACCAUAGAGAGGUUGUGCGCUCACCGAGAUCGGAAGAGCACACGU | 14.5 ± 0.8
22 | target 1 insC 3' of 19,insG 3' of 1 (mixed) RNA 1: CACCCGUGCAAAAAUGCAGGGGUCUAAAACUGAGCGGAUAACCUCUCUAUGG RNA 2: GGGAAUGGAUCCACAUCUACGAAUUCGUACCAUCAGAGAGGUUAUCCGCUCAGCCGAGAUCGGAAGAGCACACGU | 31 ± 4
23 | target 1 C6U,U8C (mixed) RNA 1: CACCCGUGCAAAAAUGCAGGGGUCUAAAACUGAGCGGAUAACCUCUCUAUGG RNA 2: GGGAAUGGAUCCACAUCUACGAAUUCGUACCAUAGAGAGGUUACCUGCUCACCGAGAUCGGAAGAGCACACGU | 15.6 ± 0.5
24 | target 1 G5C,C7U (mixed) RNA 1: CACCCGUGCAAAAAUGCAGGGGUCUAAAACUGAGCGGAUAACCUCUCUAUGG RNA 2: GGGAAUGGAUCCACAUCUACGAAUUCGUACCAUAGAGAGGUUAUUCCCUCACCGAGAUCGGAAGAGCACACGU | 33 ± 6
25 | target 1 G5C,C6A (mixed) RNA 1: CACCCGUGCAAAAAUGCAGGGGUCUAAAACUGAGCGGAUAACCUCUCUAUGG RNA 2: GGGAAUGGAUCCACAUCUACGAAUUCGUACCAUAGAGAGGUUAUCACCUCACCGAGAUCGGAAGAGCACACGU | 11.3 ± 0.8
26 | target 1 del4,del13 (mixed) RNA 1: CACCCGUGCAAAAAUGCAGGGGUCUAAAACUGAGCGGAUAACCUCUCUAUGG RNA 2: GGGAAUGGAUCCACAUCUACGAAUUCGUACCAUAGAGAGUUAUCCGUCACCGAGAUCGGAAGAGCACACGU | 16.5 ± 1.4
27 | target 1 A9G,A16U (mixed) RNA 1: CACCCGUGCAAAAAUGCAGGGGUCUAAAACUGAGCGGAUAACCUCUCUAUGG RNA 2: GGGAAUGGAUCCACAUCUACGAAUUCGUACCAUAGUGAGGUUGUCCGCUCACCGAGAUCGGAAGAGCACACGU | 82 ± 27
28 | target 1 U10C,C22U (mixed) RNA 1: CACCCGUGCAAAAAUGCAGGGGUCUAAAACUGAGCGGAUAACCUCUCUAUGG RNA 2: GGGAAUGGAUCCACAUCUACGAAUUCGUAUCAUAGAGAGGUCAUCCGCUCACCGAGAUCGGAAGAGCACACGU | 56 ± 8
